Paper PMC10526274, “Epithelial-Immune Cell Crosstalk Determines the Activation of Immune Cells In Vitro by the Human Cathelicidin LL-37 at Low Physiological Concentrations” (Biomolecules, 2023)

System: Caco-2 polarized monolayer
Assay: Bidirectional transport of FITC-LL-37 through the Caco-2 epithelial monolayer
Format: in vitro ADME, human
Method: Caco-2 cell line (ATCC HTB-37) was cultured in a humidified CO2-incubator (5% CO2, 37 °C) in the complete DMEM/F12 (1:1) medium (Gibco, Waltham, MA, USA) containing 10% fetal bovine serum (FBS, Gibco) and 1X antibiotic–antimycotic solution (Gibco). To stabilize the cell phenotype, Caco-2 cells have been subcultivated three times before seeding on the filter supports. Then, Caco-2 cells were seeded at a density of 2 × 10^5 cells/cm^2 onto 24-well Millicell cell culture inserts (PC, 0.4-μm pore size, 0.6 cm^2 surface area, cat. #PIHP01250) (Millipore, Burlington, MA, USA), precoated with 0.2% bovine gelatin (Sigma-Aldrich, Saint Louis, MO, USA). After seeding, Caco-2 cells were grown in the same complete medium with re-feeding every 2–3 days until polarization of the monolayer occurred. The functional polarity of the monolayers was developed when transepithelial electrical resistance (TEER) between the apical and basolateral surfaces of the monolayers reached […] as measured by the electrical resistance system Millicell-ERS Voltohmmeter (Millipore, Burlington, MA, USA). Grown cell monolayers were used in transport and cytokine production experiments between the 21st and 29th days.
LL-37 was labeled with fluorescein isothiocyanate isomer I (FITC) (Sigma-Aldrich). For coupling with FITC, 0.5 mg of LL-37 in 50 µL of DMSO was first mixed with 200 µL of the carbonate–bicarbonate coupling buffer (0.1 M sodium carbonate, 0.1 M sodium bicarbonate, pH 10.4). Then, 4 mg of FITC in 200 µL of DMSO was added to the solution, and the resultant mixture was incubated in the dark at room temperature (20–22 °C) for 2 h. FITC-LL-37 was purified by using a PD10 gel-filtration column (GE Healthcare, Chicago, IL, USA) pre-equilibrated with PBS.
The penetration capability of FITC-LL-37 was investigated using Caco-2 cells as an in vitro model of the intestinal epithelial barrier, grown on permeable Millicell cell culture inserts. Transport of the compound from both sides of the monolayer was determined in the transport buffer (Hank’s balanced salt solution, containing 25 mM HEPES, 1 mM MgCl2, 1 mM CaCl2, and 10 mM D(+)glucose, pH 7.4). […]
Transfer of LL-37 through Caco-2 monolayers under steady-state conditions was evaluated mathematically for each direction and each insert by the apparent permeability coefficient (Papp), calculated according to the following Equation (1): Papp = ΔC/Δt × (V/(A × Ci))(1) where ΔC/Δt is the solute flux (nM/s) across the barrier, V is the volume of the acceptor chamber, A is the effective filter area of the well (cm^2), and Ci is the initial concentration of the donor solution (nM). […]

In the case of “LL-37: the only human cathelicidin, host defense antimicrobial peptide of 37 a.a. residues, produced by solid-phase peptide synthesis”, the “Apparent permeability (Papp) B → A (secretory)” value (Caco-2 (ATCC HTB-37) on Millicell PC inserts, day 21-29, TEER 400, basolateral-to-apical, FITC-labeled LL-37, 5 µM donor, HBSS, 25 mM HEPES, pH 7.4 both sides, 37 °C, 90 min, range over 4 independent inserts) was 1.7–2.1 × 10^−6 cm/s, the “Uptake ratio (UR) = Papp(A → B)/Papp(B → A)” value (Caco-2, FITC-labeled LL-37 5 µM, pH 7.4, 90 min) was 0.51 and the “Efflux ratio (ER) = Papp(B → A)/Papp(A → B)” value (Caco-2, FITC-labeled LL-37 5 µM, pH 7.4, 90 min, no inhibitor) was 1.95. For the same substance, the “Predicted absorption in the human gut” value (predicted from Caco-2 Papp A → B by the classification of ref 20) was 0–20%.
